From paper PMC4402515 (Nucleic Acids Research, 2015) come the findings set out here.

The data set “crystal structure” concerns the molecule itself. Kind of data set: crystal structure.
The data set “SAXS” deals with the molecule itself. Kind of data set: SAXS.

B1: SFPQ-276–598 (domain or fragment)
chain: EGFKANLSLLRRPGEKTYTQRCRLFVGNLPADITEDEFKRLFAKYGEPGEVFINKGKGFGFIKLESRALAEIAKAELDDTPMRGRQLRVRFATHAAALSVRNLSPYVSNELLEEAFSQFGPIERAVVIVDDRGRSTGKGIVEFASKPAARKAFERCSEGVFLLTTTPRPVIVEPLEQLDDEDGLPEKLAQKNPMYQKERETPPRFAQHGTFEYEYSQRWKSLDEMEKQQREQVEKNMKDAKDKLESEMEDAYHEHQANLLRQDLMRRQEELRRMEELHNQEMQKRKEMQLRQEEERRRREEEMMIRQREMEEQMRRQREESYS
In the case of B1, the “stoichiometry N” value in “crystal structure” came out at 2.

B2: SFPQ-276–598/NONO-53–312 heterodimer (complex)
chain 1: B1 chain
chain 2: EGLTIDLKNFRKPGEKTFTQRSRLFVGNLPPDITEEEMRKLFEKYGKAGEVFIHKDKGFGFIRLETRTLAEIAKVELDNMPLRGKQLRVRFACHSASLTVRNLPQYVSNELLEEAFSVFGQVERAVVIVDDRGRPSGKGIVEFSGKPAARKALDRCSEGSFLLTTFPRPVTVEPMDQLDDEEGLPEKLVIKNQQFHKEREQPPRFAQPGSFEYEYAMRWKALIEMEKQQQDQVDRNIKEAREKLEMEMEAARHEHQVMLM
Regarding B2, the binding result in “SAXS” was “binds”.

B3: SFPQ-276–535 (domain or fragment)
chain: EGFKANLSLLRRPGEKTYTQRCRLFVGNLPADITEDEFKRLFAKYGEPGEVFINKGKGFGFIKLESRALAEIAKAELDDTPMRGRQLRVRFATHAAALSVRNLSPYVSNELLEEAFSQFGPIERAVVIVDDRGRSTGKGIVEFASKPAARKAFERCSEGVFLLTTTPRPVIVEPLEQLDDEDGLPEKLAQKNPMYQKERETPPRFAQHGTFEYEYSQRWKSLDEMEKQQREQVEKNMKDAKDKLESEMEDAYHEHQANLL
With B3, the “stoichiometry N” value in the data set “crystal structure” stood at 2.

B4: SFPQ-369–598 (domain or fragment)
chain: HAAALSVRNLSPYVSNELLEEAFSQFGPIERAVVIVDDRGRSTGKGIVEFASKPAARKAFERCSEGVFLLTTTPRPVIVEPLEQLDDEDGLPEKLAQKNPMYQKERETPPRFAQHGTFEYEYSQRWKSLDEMEKQQREQVEKNMKDAKDKLESEMEDAYHEHQANLLRQDLMRRQEELRRMEELHNQEMQKRKEMQLRQEEERRRREEEMMIRQREMEEQMRRQREESYS
For B4, the “stoichiometry N” value in the data set “crystal structure” was determined as 2.
